pEC50: −log10 of the molar value.
Key:
Test in all cases: EC50 of free RNA motif oligo competing protein binding to immobilised probe
MRPL22 = MRPL22 (UniProt Q9NWU5)
How it was run: (§1)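 Kd was calculated as EC50, taken from a four-parameter log-logistic fit, multiplied by a protein-dependent depletion factor. The assay used HEK293-FT lysate (2.5 mg protein/well) pre-incubated for 1 h at 4°C with free RNA oligos (0 nM to 30 μM), then incubated for 30 min at 4°C with the matching oligos bound through a 5′-amino-C6 linker to NHS-Sepharose beads. Bound proteins were measured by label-free LC-MS/MS and normalised to the control.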

MRPL12 = MRPL12 (UniProt P52815)
How it was run: as §1

MRPL50 = MRPL50 (UniProt Q8N5N7)
How it was run: as §1

MKRN2 = molecular target: T1, MKRN2 (UniProt Q9H000)
T1 sequence: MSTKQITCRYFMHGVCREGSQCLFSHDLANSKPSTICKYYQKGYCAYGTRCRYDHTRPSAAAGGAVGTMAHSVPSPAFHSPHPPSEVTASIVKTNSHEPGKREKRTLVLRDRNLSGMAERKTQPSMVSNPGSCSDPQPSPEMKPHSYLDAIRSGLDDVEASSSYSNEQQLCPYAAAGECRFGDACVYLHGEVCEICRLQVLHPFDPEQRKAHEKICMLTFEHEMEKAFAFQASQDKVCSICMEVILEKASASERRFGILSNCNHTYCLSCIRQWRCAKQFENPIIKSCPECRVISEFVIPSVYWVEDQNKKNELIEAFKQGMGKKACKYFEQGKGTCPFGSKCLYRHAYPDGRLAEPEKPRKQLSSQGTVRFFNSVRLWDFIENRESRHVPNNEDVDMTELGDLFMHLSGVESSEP
How it was run: as §1

HMGB2 = molecular target: T2, HMGB2 (UniProt P26583)
T2 sequence: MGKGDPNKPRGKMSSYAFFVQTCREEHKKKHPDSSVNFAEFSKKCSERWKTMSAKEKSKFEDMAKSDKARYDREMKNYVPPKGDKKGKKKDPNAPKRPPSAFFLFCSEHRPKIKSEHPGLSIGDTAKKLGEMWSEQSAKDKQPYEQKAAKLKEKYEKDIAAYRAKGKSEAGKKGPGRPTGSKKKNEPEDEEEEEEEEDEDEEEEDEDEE
How it was run: as §1

PABPN1 = molecular target: T3, PABPN1 (UniProt Q86U42)
T3 sequence: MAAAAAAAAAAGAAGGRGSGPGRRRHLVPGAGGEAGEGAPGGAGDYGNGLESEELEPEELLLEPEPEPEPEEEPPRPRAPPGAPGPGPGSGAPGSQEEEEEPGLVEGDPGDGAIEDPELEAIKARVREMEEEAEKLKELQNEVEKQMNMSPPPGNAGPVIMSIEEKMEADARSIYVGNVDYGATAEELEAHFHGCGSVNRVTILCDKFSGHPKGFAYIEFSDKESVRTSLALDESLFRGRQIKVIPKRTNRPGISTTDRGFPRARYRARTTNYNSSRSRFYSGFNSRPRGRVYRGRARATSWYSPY
How it was run: as §1

MRPS22 = MRPS22 (UniProt P82650)
How it was run: as §1

DHX37 = molecular target: T4, DHX37 (UniProt Q8IY37)
T4 sequence: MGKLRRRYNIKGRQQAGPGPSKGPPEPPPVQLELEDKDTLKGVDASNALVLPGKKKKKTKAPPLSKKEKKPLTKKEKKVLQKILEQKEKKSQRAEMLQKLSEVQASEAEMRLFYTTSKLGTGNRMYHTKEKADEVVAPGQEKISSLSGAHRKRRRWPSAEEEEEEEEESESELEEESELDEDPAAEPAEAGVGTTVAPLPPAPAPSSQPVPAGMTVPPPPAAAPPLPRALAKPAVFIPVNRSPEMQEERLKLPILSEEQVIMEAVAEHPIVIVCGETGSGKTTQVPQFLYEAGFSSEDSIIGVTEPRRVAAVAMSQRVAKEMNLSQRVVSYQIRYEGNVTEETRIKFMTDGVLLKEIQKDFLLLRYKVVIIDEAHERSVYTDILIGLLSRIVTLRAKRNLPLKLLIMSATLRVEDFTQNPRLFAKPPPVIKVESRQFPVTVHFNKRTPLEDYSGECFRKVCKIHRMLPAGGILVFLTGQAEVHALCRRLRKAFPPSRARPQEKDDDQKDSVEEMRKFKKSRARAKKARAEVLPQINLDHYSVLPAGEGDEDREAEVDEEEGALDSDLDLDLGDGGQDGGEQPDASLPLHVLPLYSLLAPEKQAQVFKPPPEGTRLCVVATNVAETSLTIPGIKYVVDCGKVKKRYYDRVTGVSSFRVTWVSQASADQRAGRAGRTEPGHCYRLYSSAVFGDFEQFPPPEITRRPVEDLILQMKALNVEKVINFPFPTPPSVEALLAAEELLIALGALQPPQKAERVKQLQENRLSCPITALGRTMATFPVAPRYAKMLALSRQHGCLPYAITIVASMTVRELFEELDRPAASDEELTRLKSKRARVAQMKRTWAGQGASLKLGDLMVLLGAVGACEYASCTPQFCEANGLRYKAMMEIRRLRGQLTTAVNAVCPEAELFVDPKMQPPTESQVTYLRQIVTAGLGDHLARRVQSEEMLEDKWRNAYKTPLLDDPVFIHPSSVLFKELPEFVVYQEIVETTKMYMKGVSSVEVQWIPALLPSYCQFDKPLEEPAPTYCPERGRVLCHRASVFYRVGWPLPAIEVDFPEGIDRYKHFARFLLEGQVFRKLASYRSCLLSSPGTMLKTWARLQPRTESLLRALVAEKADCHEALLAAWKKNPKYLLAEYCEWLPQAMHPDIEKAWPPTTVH
How it was run: as §1

MRPS27 = MRPS27 (UniProt Q92552)
How it was run: as §1

MRPS2 = MRPS2 (UniProt Q9Y399)
How it was run: as §1

TTC37 = TTC37 (UniProt Q6PGP7)
Sequence of TTC37 (Q6PGP7 whole entry): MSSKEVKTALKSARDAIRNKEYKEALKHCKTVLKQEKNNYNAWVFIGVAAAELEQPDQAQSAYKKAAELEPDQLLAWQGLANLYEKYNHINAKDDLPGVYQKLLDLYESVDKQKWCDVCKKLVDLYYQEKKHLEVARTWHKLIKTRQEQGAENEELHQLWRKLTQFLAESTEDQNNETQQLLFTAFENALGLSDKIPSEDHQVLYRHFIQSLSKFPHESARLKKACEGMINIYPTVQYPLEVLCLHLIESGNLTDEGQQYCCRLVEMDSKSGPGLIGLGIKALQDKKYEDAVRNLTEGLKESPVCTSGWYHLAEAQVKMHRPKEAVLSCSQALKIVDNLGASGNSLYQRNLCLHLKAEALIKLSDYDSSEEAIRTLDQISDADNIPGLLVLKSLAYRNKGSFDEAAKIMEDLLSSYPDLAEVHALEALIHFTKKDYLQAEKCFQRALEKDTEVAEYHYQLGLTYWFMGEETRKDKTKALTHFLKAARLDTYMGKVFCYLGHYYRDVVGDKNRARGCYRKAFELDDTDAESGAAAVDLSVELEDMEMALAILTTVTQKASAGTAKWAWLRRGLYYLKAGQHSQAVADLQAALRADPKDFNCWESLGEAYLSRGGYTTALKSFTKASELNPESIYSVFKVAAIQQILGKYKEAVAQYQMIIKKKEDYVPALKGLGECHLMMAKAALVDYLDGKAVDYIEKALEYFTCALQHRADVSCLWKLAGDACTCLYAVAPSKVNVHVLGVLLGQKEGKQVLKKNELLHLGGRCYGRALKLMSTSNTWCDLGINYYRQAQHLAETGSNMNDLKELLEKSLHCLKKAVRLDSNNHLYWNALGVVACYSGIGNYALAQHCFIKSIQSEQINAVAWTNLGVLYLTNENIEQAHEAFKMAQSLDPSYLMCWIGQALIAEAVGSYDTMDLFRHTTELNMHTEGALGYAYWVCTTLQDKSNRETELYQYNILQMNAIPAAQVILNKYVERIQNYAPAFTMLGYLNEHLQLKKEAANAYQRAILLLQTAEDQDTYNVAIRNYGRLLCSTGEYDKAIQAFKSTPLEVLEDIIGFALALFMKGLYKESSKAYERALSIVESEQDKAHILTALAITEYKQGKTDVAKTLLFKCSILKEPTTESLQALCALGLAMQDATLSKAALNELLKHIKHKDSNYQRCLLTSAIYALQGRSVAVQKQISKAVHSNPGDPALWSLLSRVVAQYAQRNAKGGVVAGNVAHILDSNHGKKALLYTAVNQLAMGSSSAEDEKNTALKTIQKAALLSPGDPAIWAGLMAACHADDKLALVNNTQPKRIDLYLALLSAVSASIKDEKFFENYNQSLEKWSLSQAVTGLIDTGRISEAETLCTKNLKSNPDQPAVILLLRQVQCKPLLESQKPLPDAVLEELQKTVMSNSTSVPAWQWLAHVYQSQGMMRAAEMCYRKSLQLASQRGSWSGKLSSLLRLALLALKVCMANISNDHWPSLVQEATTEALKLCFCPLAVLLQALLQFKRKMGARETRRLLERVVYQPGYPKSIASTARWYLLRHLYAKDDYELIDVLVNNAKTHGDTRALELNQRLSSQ
How it was run: as §1

CUGUCCU
pEC50 (MRPL22): 7.01
pEC50 (MRPL12): 6.94
pEC50 (MRPL50): 6.61

AAUAAA
pEC50 (MKRN2): 5.45
pEC50 (HMGB2): 8.60
pEC50 (PABPN1): 5.45

UAUUUAU
pEC50 (MRPS22): 7.07
pEC50 (DHX37): 5.33
pEC50 (MRPS27): 7.08
pEC50 (MRPS2): 7.54
pEC50 (TTC37): 6.02

From the supplement of paper PMC6379048
